Like-named read-outs stand apart in the source and are kept apart here. Side chains are listed from the residue outwards. Ends that are not written are not given here. maleimide = maleimide function on the C-terminal Lys
Key:
[1] = biological target: 7xHis-SUMO-MtbClpC1 (M. tuberculosis) (UniProt P9WPC9); assay: MST
[2] = biological target: 7xHis-SUMO-MtbClpC1 (M. tuberculosis) (UniProt P9WPC9); assay: MST; remark: listed apart in the source
[3] = biological target: Trp-LFVQLASK peptide conjugated to CSGSK^TAMRA; assay: fluorescence polarisation
[4] = biological target: Leu-LFVQLASK peptide conjugated to CSGSK^TAMRA; assay: fluorescence polarisation
[5] = biological target: Tyr-LFVQLASK peptide conjugated to CSGSK^TAMRA; assay: fluorescence polarisation
[6] = biological target: Phe-LFVQLASK peptide conjugated to CSGSK^TAMRA; assay: fluorescence polarisation
E. coli ClpS = biological target: T1, E. coli ClpS (E. coli, UniProt P0A8Q6 1-106); assay: fluorescence polarisation
T1 sequence: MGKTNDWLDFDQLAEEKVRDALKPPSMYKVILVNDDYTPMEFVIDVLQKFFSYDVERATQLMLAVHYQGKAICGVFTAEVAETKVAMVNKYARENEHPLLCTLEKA

Sequence of 7xHis-SUMO-MtbClpC1 (M. tuberculosis) (P9WPC9 whole entry): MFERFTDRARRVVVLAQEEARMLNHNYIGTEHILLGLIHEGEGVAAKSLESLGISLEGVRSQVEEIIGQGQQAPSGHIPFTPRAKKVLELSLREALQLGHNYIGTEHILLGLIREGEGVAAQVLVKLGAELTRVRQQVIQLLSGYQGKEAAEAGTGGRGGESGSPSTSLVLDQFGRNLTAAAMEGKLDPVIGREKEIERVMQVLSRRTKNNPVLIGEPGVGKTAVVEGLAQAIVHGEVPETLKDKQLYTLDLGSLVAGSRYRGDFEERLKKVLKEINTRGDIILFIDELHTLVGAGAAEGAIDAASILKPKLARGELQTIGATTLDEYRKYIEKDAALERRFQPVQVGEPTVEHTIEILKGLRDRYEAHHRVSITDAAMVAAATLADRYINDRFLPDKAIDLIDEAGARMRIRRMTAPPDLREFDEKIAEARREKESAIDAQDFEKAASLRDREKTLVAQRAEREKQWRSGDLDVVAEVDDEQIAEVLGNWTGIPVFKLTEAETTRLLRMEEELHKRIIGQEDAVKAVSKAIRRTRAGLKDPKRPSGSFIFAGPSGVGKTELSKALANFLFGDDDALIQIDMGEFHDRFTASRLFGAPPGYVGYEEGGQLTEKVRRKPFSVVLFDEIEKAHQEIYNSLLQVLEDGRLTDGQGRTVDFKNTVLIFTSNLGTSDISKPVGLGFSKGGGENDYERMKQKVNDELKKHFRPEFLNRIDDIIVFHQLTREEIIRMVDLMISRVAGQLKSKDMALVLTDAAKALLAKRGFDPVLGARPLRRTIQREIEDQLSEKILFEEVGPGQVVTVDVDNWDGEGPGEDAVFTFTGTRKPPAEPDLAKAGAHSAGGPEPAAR

Q: Which Kd [1] does the source give for M. smegmatis ClpS (natural protein) here?
A: 100 µM

Q: What about the Kd [2] of the same molecule?
A: 3.5 µM

Q: What about the Kd [3] of the same molecule?
A: 11 µM

Q: What about the Kd [4] of the same molecule?
A: 42 µM

Q: What about the Kd [5] of the same molecule?
A: 8.8 µM

Q: And the Kd [6]?
A: 6.5 µM

Q: Does LLFVQLASK([maleimide-CSGSK(TAMRA)]) (not fully specified) [Leu-LFVQLASK peptide conjugated to CSGSK^TAMRA] bind (E. coli ClpS)?
A: binds

Q: Does FLFVQLASK([maleimide-CSGSK(TAMRA)]) (not fully specified) [Phe-LFVQLASK peptide conjugated to CSGSK^TAMRA] bind (E. coli ClpS)?
A: binds

Q: Does YLFVQLASK([maleimide-CSGSK(TAMRA)]) (not fully specified) [Tyr-LFVQLASK peptide conjugated to CSGSK^TAMRA] bind (E. coli ClpS)?
A: binds

Q: Does WLFVQLASK([maleimide-CSGSK(TAMRA)]) (not fully specified) [Trp-LFVQLASK peptide conjugated to CSGSK^TAMRA] bind (E. coli ClpS)?
A: binds
